Key:
MC38 tumor cells = assay type: in vivo, C57BL/6 mice; details: two hours after intravenous 10 nmol DOTA, mice injected intratumorally with Sal-o-DBP
Method: To determine the biodistribution of Sal-o-DBP, three groups of six-week old C57BL/6 mice were injected subcutaneously with 1×10^5 MC38 tumor cells. When tumors reached approximately 200 mm^3, the mice were injected intravenously or intratumorally with 1×10^7 CFU of Sal-o-DBP in 50 μL of saline, or intravenously with saline. Sixty hours after bacterial injection, mice were injected intraperitoneally (IP) with 100 mg arabinose in 400 μL saline. Sixty-six hours after bacterial injection mice were injected intravenously with 10 nmol DOTA in 50 μL of PBS. Two hours after DOTA injection, mouse tumors, spleens, livers, and kidneys were collected for biodistribution analysis. The organs were weighed before being homogenized in equal volumes of sterile PBS. Serial dilutions of the organ slurry were prepared (tumor 10^−5, spleen, liver, and kidney 10-2) and 50 μL of the dilutions were plated on LB agar plates containing 100 μg/mL carbenicillin and incubated overnight at 37° C. Colonies were counted and the total CFU/g was determined by the formula (colony count)×(dilution factor)[…].
To determine the biodistribution of DOTA, the organs were analyzed via inductively coupled plasma mass spectrometry (ICP-MS). Fifty μL of Iridium standard was added to each sample. The organ and water mixture was mixed with one mL of 3:1 nitric acid: hydrogen peroxide overnight. […]

[1] = cited from earlier work

## O=C(O)CN1CCN(CC(=O)O)CCN(CC(=O)O)CCN(CC(=O)O)CC1 [DOTA, 2,2′,2″,2″′-(1,4,7,10-tetraazacyclododecane-1,4,7,10-tetrayl)tetraacetic acid]
MC38 tumor cells
  biodistribution of DOTA in tumor, liver, spleen, and kidney: strong levels in the tumor and kidneys with some DOTA remaining in the liver and spleen

B1: 2D12.5: monoclonal anti-DOTA(radiometal) antibody / scFv, SEQ ID NO: 1 (protein)
scFv: QVKLQESGPGLVQPSQSLSITCTVSGFSLTDYGVHWVRQSPGKGLEWLGVIWSGGGTAYTAAFISRLNIYKDNSKNQVFFEMNSLQANDTAMYYCARRGSYPYNYFDVWGQGTTVTVSSGGGGSGGGGSGGGGSQAVVTQESALTTSPGETVTLTCRSSTGAVTTSNYANWVQEKPDHLFTGLIGGNNNRPPGVPARFSGSLIGDKAALTIAGTQTEDEAIYFCALWYSNHWVFGGGTRLTVLG
modifications: 2D12.5 scFv
[1]; monoclonal anti-DOTA(radiometal) antibody
  affinity for DOTA chelates of yttrium and lutetium: low nanomolar affinity
[1]; pure scFv, DOTA-biotin-Y, read-out: binding kinetics of free 2D12.5 to DOTA-biotin-Y
  Kd: 3.7 nM

— patent US20250312387A1, “BACTERIAL THERANOSTIC RADIOIMMUNOTHERAPY” (priority 2024, published 2025)
